These are literature values, as cited in paper PMC3320014.

A word on the Kd: it is the constant that tells how readily two partners part at equilibrium.

The target of this data set is Protein Z-dependent protease inhibitor (Homo sapiens) (UniProt Q9UK55).
Sequence of UniProt Q9UK55 (Q9UK55 22-444): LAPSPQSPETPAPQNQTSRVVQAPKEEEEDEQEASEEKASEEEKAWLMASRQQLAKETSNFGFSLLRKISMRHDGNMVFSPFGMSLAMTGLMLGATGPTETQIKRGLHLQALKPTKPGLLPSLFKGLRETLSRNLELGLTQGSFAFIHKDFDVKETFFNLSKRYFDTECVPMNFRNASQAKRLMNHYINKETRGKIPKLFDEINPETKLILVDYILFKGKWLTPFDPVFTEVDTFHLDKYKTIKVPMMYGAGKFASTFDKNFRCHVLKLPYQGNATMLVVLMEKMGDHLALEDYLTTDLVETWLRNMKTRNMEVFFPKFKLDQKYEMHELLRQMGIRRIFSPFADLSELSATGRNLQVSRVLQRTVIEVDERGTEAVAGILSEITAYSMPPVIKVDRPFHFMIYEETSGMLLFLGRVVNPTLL

On to Protein Z (from UniProt P22891), for which the Kd was 7 nM.
